# ± gives the uncertainty stated by the source.
# Experiment: protein stability index of a GFP-peptide fusion (yeast GPS) (PSI 1-4); higher = more stable; sorted into four equal gates, so the index is relative within each strain
# Conditions: doa10∆
# Outline: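 Tiled 17-residue peptides from yeast proteins were fused downstream of GFP on a plasmid that also expresses Cherry, and the pooled library was carried in yeast. Mid-log cultures grown in leucine-free medium were sorted into four equal gates by GFP/Cherry fluorescence ratio. Plasmids from each gate were PCR-amplified and Illumina-sequenced, and reads were assigned to strains by barcodes. Each peptide's protein stability index is the sum, over gates, of the gate's read frequency multiplied by its gate number.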
row,Sequence,protein stability index
1,QKLPQYIIQGSNTNDNI [RGR1],3.14 ± 0.1
2,QKLWLLECQLFPQGLNI [SSN8],2.16 ± 0.068
3,QKMAELEAARSEKQNDE [PRP8],1.75 ± 0.11
4,QKNFMDQFQWILRKPGK [RRI2],2.42 ± 0.14
5,QKQWDDIAFVLNNLPYK [YCS4],2.48 ± 0.077
6,QKYWESMRIQILRRQAI [GAL11],1.34 ± 0.091
7,QLAQIRQFLKANKTNLI [YML103C/NUP188],2.65 ± 0.057
8,QLELRQLNASISLIPEL [RRI2],2.55 ± 0.062
9,QLETLTGSIRHRLKLCK [CSE2],3.32 ± 0.26
10,QLFRTNKVQIMIATNVA [PRP28],1.5 ± 0.055
11,QLGYIENSFYKKEASKT [POP1],2.27 ± 0.061
12,QLIGSNIELHSLYTSRE [PUP1],3.33 ± 0.25
13,QLIKVAVHNGGRKHVAA [RPL9A],2.47 ± 0.091
14,QLKIQNRQAAASVVPSA [RPL12A],1.82 ± 0.035
15,QLKNVQLDSYLVNGFSQ [MED2],2.49 ± 0.062
16,QLNASISLIPELSVVLS [RRI2],2.67 ± 0.064
17,QLQQQPQMQCALQNLSQ [YGL172W/NUP49],2.19 ± 0.12
18,QLSNWQKIRNSEGISEA [ITC1],2.94 ± 0.06
19,QLYFKKKVNYKVTSYDI [ISW2],2.63 ± 0.058
20,QMLIQGVWDVDNPLRQI [BRR2],3.54 ± 0.13
21,QMQQQQQAQAQAQAQAQ [GAL11],2.1 ± 0.074
22,QNDILQESFINTMSAWV [FAS2],2.14 ± 0.089
23,QNIAQSSNQSAPVETKK [HRT1],3.01 ± 0.11
24,QNNSTGSSSIIYYDSYI [SSN2],2.63 ± 0.095
25,QNRPYNHPELQGITRNV [RPC17],2.06 ± 0.046

row,Sequence,protein stability index
1,QNSANNNSDDEDVDDEE [IRR1],3.28 ± 0.14
2,QNSLLTNTHPNFLSKIR [SNF2],2.96 ± 0.073
3,QPSQQPQQAQQQPNPLH [GAL11],2.91 ± 0.05
4,QPVNFNRSWDHAYNITF [RPO31],2.13 ± 0.12
5,QQMHEVRKELRGRAVVL [RPP0],3.01 ± 0.14
6,QQQQQFRHHVQIQQQQQ [SNF5],1.3 ± 0.033
7,QQQQQHQQQQQQQQQQQ [SNF5],2.73 ± 0.04
8,QQQQQQQQQQQQQQQQH [GAL11],2.68 ± 0.033
9,QQQQQQQQRRQLTPQQQ [GAL11],2.764 ± 0.025
10,QQQSSQNTVPNVLNQIN [GAL11],1.66 ± 0.063
11,QQRIVSAYEASMVYSNV [RRP4],2.32 ± 0.062
12,QQSNKLHCCIQLLMGDI [RPN3],1.72 ± 0.045
13,QQTEHETEIKDLTQLLE [SMC4],3.44 ± 0.083
14,QRARDQDSIDISIKDNK [GAL11],3.25 ± 0.1
15,QRCKSNAISLQLKYDTS [YIL149C/MLP2],1.78 ± 0.062
16,QRDFRKHGAVHLSTYLK [RPL21A],2.6 ± 0.046
17,QREDKLKSHYYQTCKNS [SMC2],1.24 ± 0.073
18,QRETYDSNESDDDVTPS [YLR335W/NUP2],1.99 ± 0.1
19,QRITIPNVCNMKQYRDF [PRP28],2.85 ± 0.18
20,QRKTVNSDDILSLHENY [POP1],2.55 ± 0.053
21,QRQKTYVERFETQLKVV [SMC1],1.73 ± 0.065
22,QRRCLHCGALNGVVKKA [RPO31],2.35 ± 0.13
23,QRRSWRQYVGQLAPSSV [DIS3],2.06 ± 0.077
24,QRRVLLSAPLSKELRAQ [RPL26A],2.65 ± 0.073
25,QRSRRKFSERRKALPKE [DSN1],3.47 ± 0.22

row,Sequence,protein stability index
1,QRTCLMTVTFLILAGQV [YCS4],1.19 ± 0.052
2,QRYQDLSQQQKDAQKKD [YIL149C/MLP2],3.09 ± 0.08
3,QSFQNPFTASQSNINTN [YIL149C/MLP2],2.57 ± 0.067
4,QSNINTNAPLRTLNIQP [YIL149C/MLP2],2.61 ± 0.11
5,QSRLMSTSYHLNSTLES [MED6],2.79 ± 0.072
6,QSSGKLKEYLDLVARTA [YDL116W/NUP84],2.63 ± 0.23
7,QSVEEKVLEMKNLKDTA [YIL149C/MLP2],2.81 ± 0.25
8,QTENDLKDIEARIKEKA [RPT1],2.8 ± 0.13
9,QTFGVDILAKLFSLEKP [SWI1],2.81 ± 0.063
10,QTGIFVYQNNITPSAMK [RPB5],3.06 ± 0.091
11,QTLLANSDHAKFTIEPG [SNF2],2.35 ± 0.059
12,QTNIWEENWDDVEVDDD [SEM1],3.27 ± 0.16
13,QTQQDLPKVRYNVEKVK [NSL1],2.7 ± 0.074
14,QTTEGYDPKDALKNACN [RPB11],3.28 ± 0.26
15,QVDKVTKEKVNGASVPI [RPL26A],3.1 ± 0.077
16,QVLKCKESWDPNTTKTK [YGR119C/NUP57],3.52 ± 0.21
17,QVLVCTATLAWGVNLPA [BRR2],1.53 ± 0.11
18,QVMEEKLDENNAQLSCI [PUP2],3.31 ± 0.086
19,QVPSSLIVRAKNHTHNL [RRP4],2.56 ± 0.076
20,QVRKKQIETINFLRLPA [YDL116W/NUP84],3.07 ± 0.11
21,QWFLQYQNQFVEFCRNI [YML103C/NUP188],2.48 ± 0.17
22,QWGKYQTFGVDILAKLF [SWI1],2.25 ± 0.079
23,QYTKDEQFYTKDIIDPK [RPN2],3.53 ± 0.13
24,QYVTQIEQEKQEQQEQD [PRE6],2.23 ± 0.064
25,QYYLSVLNQQLPIESQF [BRR2],2.28 ± 0.059

row,Sequence,protein stability index
1,QYYVTQHDKMVDKIFEK [SWI1],2.96 ± 0.1
2,RAASAKIESSVESQFSA [RPS8A],3.11 ± 0.09
3,RAGVCEYNEDSRLCTPI [RPN13],2.29 ± 0.12
4,RANVYVGFLVQLDLTGI [PRP8],2.5 ± 0.05
5,RAQRVAEKRDALLKEDA [RPL19A],3.2 ± 0.17
6,RATPATLTELKDALSNS [SRB2],3.11 ± 0.12
7,RAVKEIKKFAKLHMGTD [RPL31A],1.7 ± 0.036
8,RAVKEIKKFAKLHMGTE [RPL31B],2.95 ± 0.071
9,RAVLKSFLESVIRDSVT [HHF1],2.62 ± 0.063
10,RAYMRPLGVILTFVSVD [SCL1],1.74 ± 0.049
11,RCFENLQNKSFKSVLPI [UBP6],2.35 ± 0.076
12,RCKIYFFYLRISKKLQF [PCI8],1.29 ± 0.06
13,RDEIAKNTELSYDFLPL [RPN12],1.54 ± 0.062
14,RDHKSYSQSPPRSPGRS [SMC4],2.59 ± 0.092
15,RDLKPSNLEKLLFINSS [YML103C/NUP188],1.93 ± 0.11
16,REASKDNVDFILSNVDL [RPB3],3.49 ± 0.1
17,REGSSARTIKATLPYIK [RPB2],2.42 ± 0.067
18,REIQTAVRLILPGELAK [HTB1],3.25 ± 0.088
19,REKNSLESGKETALEFL [SMC4],3.47 ± 0.17
20,RELLKSQVEDFTRIFLP [SIR3],3.2 ± 0.053
21,REMALCRELHNKHLTTL [SSN3],1.62 ± 0.037
22,RENGKGGQIAHILFQNN [ROX3],1.88 ± 0.062
23,REPDFWVIRKQRRTNNS [MED6],3.51 ± 0.15
24,REPRVVSALQMLKQHLF [PUP1],3.1 ± 0.13

# Same assay, conditions: pdr5∆
row,Sequence,protein stability index
1,QKLPQYIIQGSNTNDNI [RGR1],3.09 ± 0.098
2,QKLWLLECQLFPQGLNI [SSN8],1.92 ± 0.06
